Experimental data from paper PMC11772769, “Selective cargo and membrane recognition by SNX17 regulates its interaction with Retriever” (EMBO Reports, 2024).

B1: unnamed (parent)
chain 1: MHFSIPETESRSGDSGGSAYVAYNIHVNGVLHCRVRYSQLLGLHEQLRKEYGANVLPAFPPKKLFSLTPAEVEQRREQLEKYMQAVRQDPLLGSSETFNSFLRRAQQETQQVPTEEVSLEVLLSNGQKVLVNVLTSDQTEDVLEAVAAKLDLPDDLIGYFSLFLVREKEDGAFSFVRKLQEFELPYVSVTSLRSQEYKIVLRKSYWDSAYDDDVMENRVGLNLLYAQTVSDIERGWILVTKEQHRQLKSLQEKVSKKEFLRLAQTLRHYGYLRFDACVADFPEKDCPVVVSAGNSELSLQLRLPGQQLREGSFRVTRMRCWRVTSSVPLPSGSTSSPGRGRGEVRLELAFEYLMSKDRLQWVTITSPQAIMMSICLQSMVDELMVKKSGGSIRKMLRRRVGGTLRRSDSQQAVKSPPLLESPDATRESMVKLSSKLSAVSLRGIGSPSTDASASDVHGNFAFEGIGDEDL
chain 2: not shown

Variants of: B1
Test: fluorescence anisotropy
Conditions: with partner chain of the complex shown; 5-FAM-labeled L2 14-mer peptide

Q: Which Kd does the source give for chain 1 H457A here?
A: 1.1 µM

Q: chain 1 W321A was tested. Which Kd did it give?
A: 76 µM
